According to EP4328239A1 (Max-Delbrück-Centrum für Molekulare Medizin in der …, dated 2024):

Target: … (SEQ ID NO: 3) in complex with HLA-B*44:03 (human)
Experiment: cell-based or functional assay

B1: TCR6 (TCR, V domains shown, not shown: a dimerising Fc or GST)
V domain 1: QKEVEQNSGPLSVPEGAIASLNCTYSDRGSQSFFWYRQYSGKSPELIMFIYSNGDKEDGRFTAQLNKASQYVSLLIRDSQPSDSATYLCAVSSNTGKLIFGQGTTLQVKP
V domain 2: DAGVIQSPRHEVTEMGQEVTLRCKPISGHNSLFWYRQTMMRGLELLIYFNNNVPIDDSGMPEDRFSAKMPNASFSTLKIQPSEPRDSAVYFCASKWGQGAGDTQYFGPGTRLTVL
Q: With B1 as the binder, how does the EC50 killing capacity read?
A: 1.4 E:T ratio
